Test results as given in patent US20210072228A1 (UT BATTELLE, published 2021).

Biological target: the molecule itself
Experiment: size exclusion chromatography (homodimerization) of GFP-tagged PAN domain purified from HEK293 cells
Description: These cysteine residues coordinate three disulfide bridges to form a hairpin structure. The inventors hypothesized that cysteine rich PAN domain of G-lecRLKs form disulfide bonds involved in dimerization and subsequent receptor proteolysis to prevent downstream signaling cascades. To address this hypothesis, a GFP tagged PAN domain construct of RLK5 was made. In addition, mutated amino acids in the RLK5 vestigial domain were restored to consensus PAN domain amino acids based on the alignment in FIG. 1, this construct was designated RLK5-restored (RLK5R). Both RLK5 and RLK5R constructs were transfected and overexpressed in HEK293 cells. Proteins were purified on GFP column and loaded into size exclusion column (SEC) to analyze the oligomeric state.

B1: GFP tagged PAN domain construct of RLK5 (SapurV1A.0037s0270.1) (receptor)
chain: DSDYNMDTYEHTFLYGIYPPNEAIIIASLQQCREVCMQDPGCTAATFTNDGTSQCRMKTSPYFSGHQNPSLSSISFVKT
notes: It was expressed in HEK293 cells and purified on a GFP column; not shown: GFP tag
**Q.** Does B1 bind?
**A.** no binding
